Reference: the DeepSol protein solubility set

Assay: soluble on expression in E. coli; label from the status in PepcDB or PDB records

Sequence	soluble on expression in E. coli
MMPNVAPNSYYLNIPNANSTSTTTSSIFSDLNKEYESKIKEIEEYYIKTLLNENTDNDDSSSSEGHNINETDILSEYSPRPSPWLPSKPNCYHPLGDFKDLIISDSRPTNTLPINNPFAGNNNISTLATTEKKRKKRSLEVRVNPTYTTSAFSLPLTAENLQKLSQVDSQSTGLPYTLPIQKTTKLEPCRRAPLQLPQLVNKTLYKTELCESFTIKGYCKYGNKCQFAHGLNELKFKKKSNNYRTKPCINWSKLGYCPYGKRCCFKHGDDKDVEIYQNANDGRSKDTALTPLPTSLAPSNNDNITNLSKPRNLHTSVKALQRMTW	not soluble
MGHHHHHHSHMAALASSLIRQKREVREPGGSRPVSAQRRVCPRGTKSLCQKQLLILLSKVRLCGGRPARPDRGPEPQLKGIVTKLFCRQGFYLQANPDGSIQGTPEDTSSFTHFNLIPVGLRVVTIQSAKLGHYMAMNAEGLLYSSPHFTAECRFKECVFENYYVLYASALYRQRRSGRAWYLGLDKEGQVMKGNRVKKTKAAAHFLPKLLEVAMYQEPSLHSVPEASPSSPPAP	soluble
MSLTTIKEIAQKSGYSPATVSRLLNNDPNLSITADTKNKILEIANKLGYWKDHQEKEIKPTIALLYRTNHKEQLQDEYFTSLKQALVETVKQKSMKMKTFYNVKDLIENASLFQGFIGVGAAPIENAELLELHKVLPNGVFVDTNPAPELFDSIRPNLSLTVKNAIDLFIKNDCKTIGFIGGVGPKHDHIQENDPRAVAFAEYMKVRNKDTNYMFVSGPFSVENGYELGKEVVKECEDNLPDAFLIASDTLSVGVLQAFNEENVNVPKDTAILSINNSNVVKYVSPPLSSYNINQQEMIDLALTMLTNLIIQPDRAHIDVNMNTDLVVRKSFVPKGEGHHHHHH	soluble
MYQAVVFFDLDGTLMQDDKTVAASSVRAIQQLRANHVLPVIATGRNVFEVQDVMTTTGIDSIVSANGSYVAYQGQFLSAHELDKELLTDITHFANRQQNALAYYNNAGFALSHRDALTTSNYRALRQTARVAPHFYEHQHINFLLTFDPLNAAQYRQRYRGRLHFVRNNPRALDTMQWGVSKAVGIQDILTKAHLTKVPTYAFGDQLNDIEMFRMIQTPIAMGNGHPQVKQLARYVTADNMHGGIAQGLQHFDLI	not soluble
MANPKLPGISESEQALLYAKLNEYNRGRASFKEAGVYLVVLPRPGKPNYSLWLYSPLPEKQSILYIHDLSPDINESLRIASTMFYYSRRCLILMDYNEKRMQSNGDDLIFFGKYRGHFLHEILKVDPAYLSWIAYKFTPKIPKQERFVKIAQAYHSVHLDVMLRKSKEVRRKSRYLGEVNEKLTDLKLKVMRVRLEDDPYKTRVYGTTPQFFVKQILTLNDASGNLVTMSIPSKTPSTVSCTLSGIEHEYRPGEIIYVASARVSRLFESYGSKYTRLSNVKLAIVNAWSSRL	not soluble
SKFLDVECLSELQRKLNDLELTDYRVRCQLEAYSCKPAGFDKKLSKSLEQKLVEQLEASPRVLEGSPVGSLEDQSARKTLINLICTLNAAHQDYDFSSLQLSRLKRVQDVRSLQQHVDSLFELFYRQLGLEFRQFLWENIGQIIRPEECEVYSYLPDYESDPYSASGALWSFCYFFYHKNMKKILFFSCTLSTRLAEDSESTESVDEEDFGKESSGLETPFAMFETVI	soluble
MGSDKIHHHHHHMYKVIIIDDEKAAIETLRRDLEVQTDLEIKGTAGNGAKGKKLIMDIHPDLLFLDIELPDIQGIRLLSEIREQVLWDMKVVFYTAYDKYLLQALRESAFDYLLKPYDIEELNLIIERYRKTMASARPLPSFASAVGTLMPGRDLFMISTVTGFRFLRLEEIGYFEYLKDKRLWQVELFNQTKLCLKKNTTAGDIIGYSDAFVQISQSAIININYLAMIKSKQCLLYPPFSDKEDLIISRGFLKELQERFCII	not soluble
MGSDKIHHHHHHMNVFATLKTVFFGSKFLSSPVPIDGTPRRDLVSALNGLMPLCRTIPGVRLALDIREGQVVLALNWTPRTDGNAPTGSYHYIVSDEDGVREMADSQVLLTENGKDNLPGSMDDSRTHPTVSTEKTEKDSAHLKKDVQKKAGPTSPEDTGKKAKSHTLMQEVTAFLTSRYRFRFNVLTEETEVASVENNIPDTHLRYAKVDERWMNSLSLEAIETGIDCWDRDIQRFVRSRRISEYHPFTAYFEQLPEWDGTDRVSALARRVSDDPVWVNGFHRWMLGLSAQWMQLNPDNNRANSVAPLLVSSRQGLGKSTFCRLLMPDRLKSYYTESYDLSSPTSAEAKLAAYGLINLDEFDKLGASKMPLLKNLMQASALNIRKAYKHSASSLPRIASFIGTSNREDLLVDRTGSRRFLCVSLKHAIDCTTSVEHKQLYAQLKTELLSGERSWFNKEEEQTIQQHNALFYKHVPEEEVFRLCFRFATEEDNPQEVLSLSATQLFERMKAAHPSIMRGMTAYSLSRILPQLGERVHTTKGNVYRVVEC	not soluble
PVDCSVIVVNKQTKDYAESVGRKVRDLGMVVDLIFLNTEVSLSQALEDVSRGGSPFAIVITQQHQIHRSCTVNIMFGTPQEHRNMPQADAMVLVARNYERYKNECREKEREEIARQA	soluble
MQNRLTIKDIARLSGVGKSTVSRVLNNESGVSQLTRERVEAVMNQHGFSPSRSARAMRGQSDKVVAIIVTRLDSLSENLAVQTMLPAFYEQGYDPIMMESQFSPQLVAEHLGVLKRRNIDGVVLFGFTGITEEMLAHWQSSLVLLARDAKGFASVCYDDEGAIKILMQRLYDQGHRNISYLGVPHSDVTTGKRRHEAYLAFCKAHKLHPVAALPGLAMKQGYENVAKVITPETTALLCATDTLALGASKYLQEQRIDTLQLASVGNTPLMKFLHPEIVTVDPGYAEAGRQAACQLIAQVTGRSEPQQIIIPATLS	soluble
MAKKKIVAVIQARMGSSRLPGKVLMTVAGKPLLEHIIDRLRRSRTLDDIVIATSDKPCDDPLVDFAQTRGVTLVRGSEDNVLLRFNKAAEEVDADVIIRVTGDAPLVDPEVMDRLVRTLLQEGAEYCTIEAGINSIHEGFCTFTRGALKRLMTEAPDDPVAIEHVTAYFIAHPDKFHIARIPVGNEHRFKGARLSVDTPADVQFFDELYRLLGVPAGDADIADVVRLLRNNPHLLQINQHVYQKKATDRSHKVLIRCDGDSRTGLGHVVRCLALAGELREKQGCGIIFAMASGEPGMKMVRQADFPLERQEDADEGEWMDGLISRHHPDVLILDIRNDLPVEKVDSWREDGILVVGIDDPTPRRLAADLLFYPPIPQISELNWNNFNGEICSGWEWVLLRKQFCAPCPPRNNNPPALLLTMGGSDPANFTVRVLRVLDELQNDFETIVVIGAGFVHEEDLQQFLSQARRHYRIEREVSDMASLMRQADLAIASFGVTAYELAASGVPAVYLCLTPDHARSASKFVDDRLAFSCGVLEECSNERIIESTLSLLDSRELRHEVGRRACATVDGYGATRIATKIVEKLERMHSSHGLEHHHHHH	not soluble
MGSDKIHHHHHHMTPQPLADNLSPPDPARLAQSIKDWGRELGFQQVGISDVELGEHEAHLQRWLEAGYHGEMDYMAAHGSKRSRPAELVPGTLRVISLRMDYLPGDTRMAQVLATPEKAYVSRYALGRDYHKLIRKRLQQLAERIQAEVGPFGFRAFVDSAPVLEKAIAEQAGLGWIGKNTLVLNRKAGSYFFLGELFVDMPLPVDPAMDSEHCGRCSACLDICPTAAFVGPYRLDARRCISYLTIEYKGAIPLELRPLIGNRVFGCDDCQIVCPWNRFARPTGQGDFQPRHSLDNAELAELFLWSEEEFLGRTEGSPLRRAGYERWLRNLAVGLGNAPSTIPVLEALKARRGFPSELVREHVEWALRRHGET	not soluble
MAHHHHHHMISRINIDGSVNGRFCKKINNNIDCKLNFNTYAKNDTRNMYEMSLEVNKPLYTYNFKSIWQGAWIFNTSYTQLLTKKLQAGVDLTYIASNCASIGSFGLRYNHKNNVLTMQIVRQPNFKSPEFMLNQTHLYKIQYAKKISDRLSLGTELEITPQTKESAMRLGWDYSFRHAKVQGSIDTSGKISVFTQDYSGFGVSGYIDYLNNDYKFGFMMHISPSQEQPQTAA	not soluble
VVGNMTPDFLGSVATTLTWKDLSLNVGLDMRFGGLVASYCNLYGTQAGWTESSLQYRDPEHGGMTWTSQYADSKGIQYTDGMIPEGVFKEGTIATLVDGTKMDVSGLSYAQLVQEGKLEPTHAGSWYGNNYAWGAQTIDDIWVHKLSYIALRNITINYRLPNSISHKLGAKGLNLSFSARNLGYLYNSLPNNLNPESVRSNSASEFRIRGFEPYTASYIFTINANF	not soluble
MLNVEPSFAEELRSSGVSLSATYLGSVPVVESINVMVSEMRVQVVSECIQHVAATVGVTAAREINPVVSRPTLHGSMKKPR	not soluble
MELKEELLRGIYGFGFEKPSAIQKSAVAPCTTGKDVTIQSQAGSGKTVISLIDILQGIDCEDAHLQVILLAPQRGMAQRAHEQLKSLGRNLNVNATCLGFDTTAENDKISHVLMGTPKDFLSNIPSDTSRIKMFVLDEADEMLSKGFKDQIYEVFRSMPQDVQVVLLSATMPSEVLDVTNRFMRDPIRILVKKDELTLEGIRQFYINVQKDEWKFNCLCDLLKTSRETQALIFCNTRRRVTQLTEQLMSIPIKVSCFHGNMEHNEREDMVKDFNSRNTRVLVTTDLMARGMNIRKSLIINYDVSGNMENYMLRNGRQGNFGSKGLPISFFTENDISDLKKIENHYSTRIEEMPESFLEYLDEN	not soluble
MIAGPLGRASELHRYEGNQTVVFCAGGVGLPPVYPIMREHLRLGNHVTLISGFRAKEFLFWTGDDERVGKLKKEFGDQLSLIYTTNDGSYGVKGFVTGPLEEMMKANQEGKGRSIAEVIAIGPPLMMRAVSDLTKPYGVKTVASLEHHHHHH	not soluble
MGSDKIHHHHHHMPDSPTTTSTLDLELLRTFVAVVDQHSFAQAGAHLARTQSSVTQHMQRLEQQTGVSLFQKKGRHKQLTESGRQLLRHARQMLSLNDDALNSLRDSSLSGVLRIGSPHDIADTILPPLLSHIARSAPRLRLEIDVGRSPFLMDDLHRGKVDMVISTREDPTLEGFALRTSPVWWICSAQYIHVPGEPLPLILVDEPSIYRRYALHALEAANIPWRQAYLASNLIGIKAATRAGLGVTPRSMEMLGPDMRVLGESEGLPRLPDVTYHLWIRPNTLNPLARKAYELIRASQSL	not soluble
MAMTLVRRDARPMELTPFRTWSPFTLVDEVNRLFEEAFSDLVRPAAAYVAPADLYETDEALILEMAVPGMTPEDLEVSLEGNKLTIRGQVKPVADERVRRYYLQEMAHGSFVRTFTLPVEVDASGVKAEFRNGILRLTLPKVAEARARRIPIEVVQ	soluble
MNKRVQAFLAKMQEKELDGIIINNLKNVYYLTGFWGSNGTVFISRDRQVLVTDSRYIIAAKQETSGFEIVADRDELAVIAGIVKDMGLTRIGFEDEISVSYYHRMQAAFAGLNLLPQTQFVEGLRMIK	not soluble
MPRTRVNLQKSEANDRSFTISSLEFCLSQLRKADPNLVKKAIASGDGLTESKNDVSTRLSEAHRYSVQQCLDNSEQLAQLHNQLVHCDNVFERLQATLYSFQDNLGSIGQDMKNLQLQSHHIHQELENRQKVRVELSQFVDDIAVSQTMMKTINDTDANDRGFLEALHELHHKITLILQRGNGDAVAVNDTMPILEGLKLKAVVKVREWLLQKMFQFRKPLSNYQVFQHQLLKCRFFYEFLLHHDLISAKELQDEYIDTISKMFFTYFKAYATRLFKLAMKDVATKEDALGSIDFAKPAGLGAIFSSKQHVVRNKATVFSIGQRHQILSDDFLGALIVPHAVTQNHQSVYLTIELAMARAMSVVLKSCEEQIALSWDAISLHLCICLCDKFTEVLAEREVPEVSDYWNTVTSFLWTRLNLVMSQHYESVKSVDLKKLMHSGSLDARPHFIVRRYAELTSAHLMIAKASGKEMGAKMEAVLENSEDSIEQLLTRMSAMQQTQKNKHVFLINNYDLILSIIDNEESKHTKIYAIVHELEQKSIDDFVEEMLEPHIGYMIKFVNECESLIVQGHTQLLVRYNDKVGTVVANFNAKWRPAVDSINSECIQLFTNFSLGTTILQTIFTKYVQYINRFTKILSHDVFAKNPVCSQLVNVHQVMLEIKRFKPAY	not soluble
